{"source": "paper PMC4624693", "origin": "cited, not measured here", "key": {"Lys66": {"biological_target": "Lys66 (UniProt position 148, FTKKMKENAKK)"}, "Asp11": {"biological_target": "Asp11 (UniProt position 987, CPSSYDGYCLN)", "assay": "NMR", "conditions": "free, folded protein"}, "Asp27": {"biological_target": "Asp27 (UniProt position 1003, HIESLDSYTCN)", "assay": "NMR", "conditions": "free, folded protein"}, "Asp40": {"biological_target": "Asp40 (UniProt position 1016, IGYSGDRCQTR)", "assay": "NMR", "conditions": "free, folded protein"}, "Asp46": {"biological_target": "Asp46 (UniProt position 1022, RCQTRDLRWWE)", "assay": "NMR", "conditions": "free, folded protein"}, "Cterm53": {"biological_target": "Cterm53 (UniProt position 1029, RWWELRHAGYG)", "assay": "NMR", "conditions": "free, folded protein"}, "Glu24": {"biological_target": "Glu24 (UniProt position 1000, VCMHIESLDSY)", "assay": "NMR", "conditions": "free, folded protein"}, "Glu51": {"biological_target": "Glu51 (UniProt position 1027, DLRWWELRHAG)", "assay": "NMR", "conditions": "free, folded protein"}, "His22": {"biological_target": "His22 (UniProt position 998, GGVCMHIESLD)", "assay": "NMR", "conditions": "free, folded protein"}, "Nterm1": {"biological_target": "Nterm1 (UniProt position 977, HHLDRNSYPGC)", "assay": "NMR", "conditions": "free, folded protein"}, "Asp": {"biological_target": "Asp", "conditions": "free peptide"}}}
{"molecule": "Staphylococcal nuclease Delta+PHS/V66K (Staphylococcus aureus; V66K; Delta+PHS background (substitutions not listed in the article))", "values": [{"measurement": "pKa", "setting": "Lys66", "result": 5.6}]}
{"molecule": "Epidermal growth factor (mouse EGF) (Mus musculus)", "values": [{"measurement": "pKa", "setting": "Asp11", "result": "3.9±0.05"}, {"measurement": "pKa", "setting": "Asp27", "result": "4.0±0.1"}, {"measurement": "pKa", "setting": "Asp40", "result": "3.6±0.1"}, {"measurement": "pKa", "setting": "Asp46", "result": "3.8±0.1"}, {"measurement": "pKa", "setting": "Cterm53", "result": "3.5±0.1"}, {"measurement": "pKa", "setting": "Glu24", "result": "4.1±0.1"}, {"measurement": "pKa", "setting": "Glu51", "result": "~4"}, {"measurement": "pKa", "setting": "His22", "result": "6.8±0.1"}, {"measurement": "pKa", "setting": "Nterm1", "result": "7.7±0.1"}]}
{"molecule": "SDNKTYG", "values": [{"measurement": "pKa", "setting": "Asp", "result": 3.6}]}
